# In patent US20190315845A1 (ANNEXON, published 2019):
# B1: Fab fragment of humanized anti-C1q antibody VH3/Vκ3 (Fab)
# heavy: QVQLVQSGAELKKPGASVKVSCKSSGYHFTSYWMHWVKQAPGQGLEWIGVIHPNSGSINYNEKFESRVTITVDKSTSTAYMELSSLRSEDTAVYYCAGERDSTEVLPMDYWGQGTTVTVSS
# light: DVQITQSPSSLSASLGERATINCRASKSINKYLAWYQQKPGKAPKLLIYSGSTLQSGIPARFSGSGSGTDFTLTISSLEPEDFAMYYCQQHNEYPLTFGQGTKLEIK
# notes: also called Fab VH3/Vκ3; Fab-VH3/Vκ3; not shown: CH1 part of the human IgG4 (S241P L248E) constant region left after digestion of the IgG with a Fab Micro Preparation Ki; human kappa light chain constant region
# Experiments:
# human C1q [1] = target: T1, human C1q (human, UniProt P02745 23-245; P02746 28-253; P02747 29-245); test: SPR Biacore T200, 1:1 model; Fab immobilised (ligand), hC1q analyte
# T1 construct: Purified human C1q protein (plate-coated in ELISA, ligand or analyte in SPR, in human serum in CH50); also called hC1q; complement factor C1q
# mouse C1q [2] = target: T2, mouse C1q (mouse, UniProt P98086 23-245; P14106 26-253; Q02105 30-246); test: SPR Biacore T200, 1:1 model; Fab immobilised (ligand), mC1q analyte; analysis 1
# T2 construct: Purified mouse C1q protein; also called mC1q
# mouse C1q [3] = target: T2, mouse C1q; test: SPR Biacore T200, 1:1 model; Fab immobilised (ligand), mC1q analyte; analysis 2
# mouse C1q [4] = target: T2, mouse C1q; test: SPR Biacore T200, 1:1 model; mC1q immobilised (ligand), Fab analyte; analysis 1
# mouse C1q [5] = target: T2, mouse C1q; test: SPR Biacore T200, 1:1 model; mC1q immobilised (ligand), Fab analyte; analysis 2
# Protocol: (§1) Due to concerns about stability, two chips were prepared; one with hC1q and mC1q (Chip All) as ligands and one with IgG and Fab (Chip A13) as ligands Immobilization for m/h C1q was carried out at a protein concentration of 5 μg/ml in 10 mM acetate buffer pH 5.5, whereas immobilization for IgG and Fab was carried out at a protein concentration of 0.5-2 μg/ml in 10 mM acetate buffer pH 5.0, both on a CMS Series S sensor chip (Biacore).
# (§2) Both C1q complexes were immobilized based on concerns over avidity (i.e., two immobilized antibodies binding C1q), and the very high levels of NSB observed using mC1q and to a lesser extent hC1q to the CM5 surface (charge mediated estimated C1q: pI 8-9). Single cycle kinetics (SCK) were used initially to derive estimated kinetic constants due to uncertainty over the stability of the C1q complex and the regeneration conditions. Full kinetic analysis was performed after SCK. The ligand stability control injections performed during the kinetic run indicated either the regeneration conditions used were inactivating the ligand, or the ligand itself was unstable at 25° C. during the 48 hours required for kinetic analysis.
# (§3) The association phase was monitored for 500 seconds to allow some of the higher concentrations of analyte to reach steady state. In order to observe a sufficient signal decrease (>10%) during the dissociation phase of the kinetic cycle, dissociation was measured for up to 10,800 seconds to allow sufficient dissociation to occur for accurate assessment of the kinetics. The signal from the reference channel Fₑ1 was subtracted from that of Fₑ2, Fₑ3, and Fₑ4.
# human C1q [6] = target: T1, human C1q; test: SPR Biacore T200, heterogeneous ligand model, KD1; hC1q immobilised (ligand), Fab analyte
# Protocol: as §1
# (§4) The kinetic parameters for both the IgG and Fab interactions with hC1q were in the low picomolar range (Table 6 for 1-to-1 model and Table 7 for the heterogeneous model). In order to avoid avidity, hC1q was initially used as the ligand, however this limited the analysis to single cycle kinetics and the use of more complex models, for example, heterogeneous ligand binding models (Equation 3), that may represent the different forms of hC1q structure that were associated with chemical coupling of a multi-subunit protein to a surface. When hC1q was used as the analyte both IgG and Fab were immobilized at the lowest concentrations possible to avoid avidity. The data was analyzed using a 1-to-1 model and a more complex bivalent analyte model (Equation 4). […] It should be noted that the dissociation rate was too slow to measure accurately with this technique. […]
# human C1q [7] = target: T1, human C1q; test: SPR Biacore T200, heterogeneous ligand model, KD2; hC1q immobilised (ligand), Fab analyte
# Protocol: as §1, §4
# human C1q [8] = target: T1, human C1q; test: SPR Biacore T200, heterogeneous ligand model, ka1; hC1q immobilised (ligand), Fab analyte
# Protocol: as §1, §4
# human C1q [9] = target: T1, human C1q; test: SPR Biacore T200, heterogeneous ligand model, ka2; hC1q immobilised (ligand), Fab analyte
# Protocol: as §1, §4
# human C1q [10] = target: T1, human C1q; test: SPR Biacore T200, heterogeneous ligand model, kd1; hC1q immobilised (ligand), Fab analyte
# human C1q [11] = target: T1, human C1q; test: SPR Biacore T200, heterogeneous ligand model, kd2; hC1q immobilised (ligand), Fab analyte
# Protocol: as §1, §4
# human C1q [12] = target: T1, human C1q; test: SPR Biacore T200, 1:1 model, single cycle kinetics; hC1q immobilised (ligand), Fab analyte
# mouse C1q [13] = target: T2, mouse C1q; test: SPR Biacore T200, 1:1 model; Fab immobilised (ligand), mC1q analyte; mean of 2 independent analyses
# Protocol: as §1, §3
# mouse C1q [14] = target: T2, mouse C1q; test: SPR Biacore T200, 1:1 model; mC1q immobilised (ligand), Fab analyte; mean of 2 independent analyses
# Protocol: as §1, §2, §3
# T1 sequence (P02745 23-245 limits assumed, chain 1 of 3): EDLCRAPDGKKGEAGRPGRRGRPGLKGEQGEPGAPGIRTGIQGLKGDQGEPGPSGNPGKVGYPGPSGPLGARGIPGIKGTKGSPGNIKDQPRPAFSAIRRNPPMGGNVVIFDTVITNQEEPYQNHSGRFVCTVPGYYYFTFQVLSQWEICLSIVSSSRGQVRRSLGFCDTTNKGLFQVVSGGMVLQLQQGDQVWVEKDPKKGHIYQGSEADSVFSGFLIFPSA
# T1 sequence (P02746 28-253 limits assumed, chain 2 of 3): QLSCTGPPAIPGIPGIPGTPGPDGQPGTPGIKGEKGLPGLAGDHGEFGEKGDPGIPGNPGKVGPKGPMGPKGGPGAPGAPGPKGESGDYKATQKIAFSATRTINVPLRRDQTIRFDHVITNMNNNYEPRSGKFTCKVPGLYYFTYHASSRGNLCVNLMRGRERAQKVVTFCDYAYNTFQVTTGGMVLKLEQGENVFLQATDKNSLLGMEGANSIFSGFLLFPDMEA
# T1 sequence (P02747 29-245 limits assumed, chain 3 of 3): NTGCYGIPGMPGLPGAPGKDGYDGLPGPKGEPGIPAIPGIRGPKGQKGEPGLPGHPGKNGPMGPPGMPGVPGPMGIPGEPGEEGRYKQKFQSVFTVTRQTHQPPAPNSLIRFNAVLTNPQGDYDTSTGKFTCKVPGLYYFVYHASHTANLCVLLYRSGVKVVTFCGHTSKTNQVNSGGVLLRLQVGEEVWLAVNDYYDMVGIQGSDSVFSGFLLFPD
# T2 sequence (P98086 23-245 limits assumed, chain 1 of 3): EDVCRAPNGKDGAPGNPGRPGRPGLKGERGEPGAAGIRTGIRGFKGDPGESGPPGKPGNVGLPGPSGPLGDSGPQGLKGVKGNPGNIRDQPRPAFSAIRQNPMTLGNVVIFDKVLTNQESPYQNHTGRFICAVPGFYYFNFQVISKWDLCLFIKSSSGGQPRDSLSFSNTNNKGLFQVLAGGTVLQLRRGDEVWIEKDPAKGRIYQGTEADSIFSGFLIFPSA
# T2 sequence (P14106 26-253 limits assumed, chain 2 of 3): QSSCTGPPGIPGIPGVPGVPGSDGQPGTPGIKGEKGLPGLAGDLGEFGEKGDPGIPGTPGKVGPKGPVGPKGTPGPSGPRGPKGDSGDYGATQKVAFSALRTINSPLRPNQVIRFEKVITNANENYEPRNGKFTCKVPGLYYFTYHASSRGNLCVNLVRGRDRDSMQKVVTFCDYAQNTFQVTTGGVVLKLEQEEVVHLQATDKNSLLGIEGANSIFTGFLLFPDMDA
# T2 sequence (Q02105 30-246 limits assumed, chain 3 of 3): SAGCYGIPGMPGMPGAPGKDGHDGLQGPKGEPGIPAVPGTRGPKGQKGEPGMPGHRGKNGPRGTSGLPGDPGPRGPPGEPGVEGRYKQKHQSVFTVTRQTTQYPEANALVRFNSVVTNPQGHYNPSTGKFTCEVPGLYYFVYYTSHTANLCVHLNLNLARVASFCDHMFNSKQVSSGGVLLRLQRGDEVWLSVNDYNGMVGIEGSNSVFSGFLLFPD
binder,measurement,setting,value
B1,Kd,human C1q [1],0.0086 nM
same,koff,human C1q [1],9.1e-06 s⁻¹
same,kon,human C1q [1],1.1e+06 M⁻¹ s⁻¹
same,Kd,mouse C1q [2],126 nM
same,koff,mouse C1q [2],0.056 s⁻¹
same,kon,mouse C1q [2],450000 M⁻¹ s⁻¹
same,Kd,mouse C1q [3],121 nM
same,Kd,mouse C1q [4],748 nM
same,koff,mouse C1q [4],0.0046 s⁻¹
same,kon,mouse C1q [4],6230 M⁻¹ s⁻¹
same,Kd,mouse C1q [5],607 nM
same,koff,mouse C1q [5],0.0041 s⁻¹
same,kon,mouse C1q [5],6900 M⁻¹ s⁻¹
same,Kd,human C1q [6],175 nM
same,Kd,human C1q [7],3.4 nM
same,kon,human C1q [8],130000 M⁻¹ s⁻¹
same,kon,human C1q [9],18000 M⁻¹ s⁻¹
same,koff,human C1q [10],2.3e-05 s⁻¹
same,koff,human C1q [11],6.3e-08 s⁻¹
same,Kd,human C1q [12],< 0.192 nM
same,koff,human C1q [12],< 1e-05 s⁻¹
same,kon,human C1q [12],52000 M⁻¹ s⁻¹
same,Kd,mouse C1q [13],123 nM
same,koff,mouse C1q [13],0.032 s⁻¹
same,kon,mouse C1q [13],310000 M⁻¹ s⁻¹
same,Kd,mouse C1q [14],677 nM
same,koff,mouse C1q [14],0.0043 s⁻¹
same,kon,mouse C1q [14],6500 M⁻¹ s⁻¹
